Experimental data as given in patent US20250188176A1 (INVETX, published 2025).
Where “and” joins values, the source holds several entries; their conditions need not be identical. Equal entries are not always repeated.

Columns and labels:
[1] = target: T1, Extracellular domain (ECD) of the canine IL-4 receptor alpha-AviTag-His Tag (canine); assay: SPR, IgG captured via anti-dog H+L
T1 construct: expressed in CHO cells; also called canine IL-4RA; canine IL4Ra
T1 chain: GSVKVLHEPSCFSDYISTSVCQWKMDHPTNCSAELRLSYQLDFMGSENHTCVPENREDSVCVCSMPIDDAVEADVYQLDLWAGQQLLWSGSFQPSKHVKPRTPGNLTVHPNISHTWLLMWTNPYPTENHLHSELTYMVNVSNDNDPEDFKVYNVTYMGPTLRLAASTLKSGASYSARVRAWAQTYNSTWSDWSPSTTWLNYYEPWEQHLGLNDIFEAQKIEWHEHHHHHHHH

[2] = target: T1, Extracellular domain (ECD) of the …; assay: SPR, IgG captured via anti-dog Fc
[3] = target: T1, Extracellular domain (ECD) of the …; assay: SPR, IgG captured via anti-dog Fc
[4] = target: canine IL-4RA on canine DH82 cells (canine); assay: cell-based or functional assay
[5] = target: T1, Extracellular domain (ECD) of the …; assay: SPR, IgG captured via anti-dog Fc
[6] = target: canine IL-4RA on canine DH82 cells (canine); assay: cell-based or functional assay; remark: listed apart in the source
[7] = target: T1, Extracellular domain (ECD) of the …; assay: SPR, IgG captured via anti-dog H+L
[8] = target: T2, Extracellular domain (ECD) of the canine IL-4 receptor alpha-V5 epitope-AviTag-His Tag (canine); assay: SPR, antibody captured via anti-human Fc
T2 construct: monomeric form isolated by size exclusion; also called canine IL-4RA-V5-Avi-His; canine IL-4RA
T2 chain: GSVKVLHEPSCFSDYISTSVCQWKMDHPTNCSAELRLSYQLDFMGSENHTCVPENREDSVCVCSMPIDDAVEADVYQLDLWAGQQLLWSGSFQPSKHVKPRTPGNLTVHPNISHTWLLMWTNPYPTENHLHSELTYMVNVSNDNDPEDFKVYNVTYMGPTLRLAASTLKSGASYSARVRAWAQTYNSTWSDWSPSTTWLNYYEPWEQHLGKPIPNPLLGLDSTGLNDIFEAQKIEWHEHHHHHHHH

[9] = target: T2, Extracellular domain (ECD) of the …; assay: SPR, Fab-SASA captured on BSA;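 note: biacore T200 SPR, Fab-SASA variants from E. coli conditioned medium captured on BSA-coated CM5 chip, canine IL-4RA injected 120 s then 420 s dissociation, 1:1 model fit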
[10] = target: canine IL-4RA (construct not given) (canine); assay: SPR, combinatorial Fab-SASA clone

B1: TB640_275 (antibody, V domains shown)
VH: EVQLVESGGDLVKPGGSLRLSCVASGFTFRDYAMDWVRQAPGKGLQWLSLISGSGGKTYYADAVKGRFTISRDNAKNTLYLQMNSLRAEDTAVYYCAVDRLTKTIRPQYYGLWVWGQGTLVTVSS
VL: DIVMTQTPLSLSVSPGETASISCRSSQSLLYSIGYNYLDWYMQKPGQSPQGLIYLGSKRASGVSDRFSGSGSGADFTLKISRVEADDAGVYYCMQGLQSPLTFGQGTKLEIKR
notes: also called TB640_275-H + TB640_275-L
In the case of B1, the Kd [1] is reported as 1.71 nM, the koff [1] is reported as 0.000487 s⁻¹ and the kon [1] is reported as 287000 M⁻¹ s⁻¹.

B2: 21188-H + 21188-L (antibody, V domains shown)
VH: EVQLVESGGDLVKPGGSLRLSCVASGFTFRDYAMTWVRQAPGKGLQWLSLISGSGGKTYYADAVKGRFTISRDNAKNTLYLQMNSLRAEDTAVYYCAVDRLTKTIRPQYYGLWHWGQGTLVTVSS
VL: DIVMTQTPLSLSVSPGETASISCRSSQSLTYSIGYNYLDWYMQKPGQSPQGLIYLGSKRASGVSDRFSGSGSGADFTLKISRVEADDAGVYYCMQGLQSPLGFGQGTKLEIKR
For B2, the Kd [2] was 0.18 nM, the koff [2] was 5.96e-05 s⁻¹ and the kon [2] was 332000 M⁻¹ s⁻¹. The Kd [3] was 0.243 nM, the koff [3] was 9.93e-05 s⁻¹ and the kon [3] was 410000 M⁻¹ s⁻¹. For the same binder, the “IC50: % inhibition of STAT6 phosphorylation (AlphaLISA pSTAT6) in canine DH82 cells stimulated with 20 ng/mL canine IL-4” value (shortened to “IC50: % inhibition … with 20 ng/mL canine IL-4”) [4] was 2.17 nM, the Kd [5] was 0.4 nM and the koff [5] was 9.85e-05 s⁻¹. For the same binder, the kon [5] was 246000 M⁻¹ s⁻¹.

B3: 21188-H + GFmix2_KTHG-L (antibody, V domains shown)
VH: EVQLVESGGDLVKPGGSLRLSCVASGFTFRDYAMTWVRQAPGKGLQWLSLISGSGGKTYYADAVKGRFTISRDNAKNTLYLQMNSLRAEDTAVYYCAVDRLTKTIRPQYYGLWHWGQGTLVTVSS
VL: DIVMTQTPLSLSVSPGETASISCRSSKSLTYSIGYNYLDWYMQKPGQSPQGLIYLGSKRASGVSDRFSGSGSGADFTLKISRVEADDAGVYYCMQGLHSPLGFGQGTKLEIKR
Work on B3 yielded a Kd [2] of 0.168 nM, a koff [2] of 5.92e-05 s⁻¹ and a kon [2] of 354000 M⁻¹ s⁻¹.

B4: 21188-H + GFmix3_KTHS-L (antibody, V domains shown)
VH: EVQLVESGGDLVKPGGSLRLSCVASGFTFRDYAMTWVRQAPGKGLQWLSLISGSGGKTYYADAVKGRFTISRDNAKNTLYLQMNSLRAEDTAVYYCAVDRLTKTIRPQYYGLWHWGQGTLVTVSS
VL: DIVMTQTPLSLSVSPGETASISCRSSKSLTYSIGYNYLDWYMQKPGQSPQGLIYLGSKRASGVSDRFSGSGSGADFTLKISRVEADDAGVYYCMQGLHSPLSFGQGTKLEIKR
B4 gave a Kd [2] of 0.144 nM, a koff [2] of 4.79e-05 s⁻¹ and a kon [2] of 333000 M⁻¹ s⁻¹.

B5: 21188-H + GFmix_THS-L (antibody, V domains shown)
VH: EVQLVESGGDLVKPGGSLRLSCVASGFTFRDYAMTWVRQAPGKGLQWLSLISGSGGKTYYADAVKGRFTISRDNAKNTLYLQMNSLRAEDTAVYYCAVDRLTKTIRPQYYGLWHWGQGTLVTVSS
VL: DIVMTQTPLSLSVSPGETASISCRSSQSLTYSIGYNYLDWYMQKPGQSPQGLIYLGSKRASGVSDRFSGSGSGADFTLKISRVEADDAGVYYCMQGLHSPLGFGQGTKLEIKR
B5 was tested, and the Kd [2] was 0.162 nM, the koff [2] was 5.78e-05 s⁻¹ and the kon [2] was 357000 M⁻¹ s⁻¹.

B6: GFmix_PTH-H + GFmix3_KTHS-L (antibody, V domains shown)
VH: EVQLVESGGDLVKPGGSLRLSCVASGFPFRDYAMTWVRQAPGKGLQWLSLISGSGGKTYYADAVKGRFTISRDNAKNTLYLQMNSLRAEDTAVYYCAVDRLTKTIRPQYYGLWHWGQGTLVTVSS
VL: DIVMTQTPLSLSVSPGETASISCRSSKSLTYSIGYNYLDWYMQKPGQSPQGLIYLGSKRASGVSDRFSGSGSGADFTLKISRVEADDAGVYYCMQGLHSPLSFGQGTKLEIKR
B6 showed a Kd [3] of 0.17 nM, a koff [3] of 7.58e-05 s⁻¹ and a kon [3] of 447000 M⁻¹ s⁻¹. The “IC50: % inhibition … with 20 ng/mL canine IL-4” value [4] was 0.6 nM.

B7: GFmix_PTH-H + GFmix_THS-L (antibody, V domains shown)
VH: EVQLVESGGDLVKPGGSLRLSCVASGFPFRDYAMTWVRQAPGKGLQWLSLISGSGGKTYYADAVKGRFTISRDNAKNTLYLQMNSLRAEDTAVYYCAVDRLTKTIRPQYYGLWHWGQGTLVTVSS
VL: DIVMTQTPLSLSVSPGETASISCRSSQSLTYSIGYNYLDWYMQKPGQSPQGLIYLGSKRASGVSDRFSGSGSGADFTLKISRVEADDAGVYYCMQGLHSPLGFGQGTKLEIKR
In the case of B7, the Kd [3] is reported as 0.171 nM, the koff [3] is reported as 7.78e-05 s⁻¹ and the kon [3] is reported as 458000 M⁻¹ s⁻¹. The “IC50: % inhibition of STAT6 phosphorylation (AlphaLISA pSTAT6) in canine DH82 cells stimulated with 50 ng/mL canine IL-13” value [6] was 0.21 nM and the “IC50: % inhibition … with 20 ng/mL canine IL-4” value [4] was 1.03 nM.

B8: TB640_005 (antibody, V domains shown)
VH: EVQLVESGGDLVKPGGSLRLSCVASGFTFRDYAMTWVRQAPGKGLQWVSLISGSGGKTYYADAVKGRFTISRDNAKNTLYLQMNSLRAEDTAVYYCAVDRLTKTIRPQYYGLWVWGQGTLVTVSS
VL: DIVMTQTPLSLSVSPGETASISCRSSQSLLYSIGYNYLDWYLQKPGQSPQGLIYLGSKRASGVPDRFSGSGSGTDFTLRISRVEANDTGVYYCMQGLQSPLTFGQGTKLEIKR
notes: caninized IgG; also called TB640_005-H + TB640_005-L
B8 was tested, and the Kd [7] was 2.72 nM, the koff [7] was 0.000484 s⁻¹ and the kon [7] was 180000 M⁻¹ s⁻¹. It also gave a Kd [3] of 2.29 nM, a koff [3] of 0.000486 s⁻¹ and a kon [3] of 212000 M⁻¹ s⁻¹.

B9: Dupilumab (dupilumab VH with human IgG1 constant region, dupilumab kappa light chain) (antibody, V domains shown)
VH: EVQLVESGGGLEQPGGSLRLSCAGSGFTFRDYAMTWVRQAPGKGLEWVSSISGSGGNTYYADSVKGRFTISRDNSKNTLYLQMNSLRAEDTAVYYCAKDRLSITIRPRYYGLDVWGQGTTVTVSS
VL: DIVMTQSPLSLPVTPGEPASISCRSSQSLLYSIGYNYLDWYLQKSGQSPQLLIYLGSNRASGVPDRFSGSGSGTDFTLKISRVEAEDVGFYYCMQALQTPYTFGQGTKLEIKR
notes: human IgG1 instead of the IgG4 of the drug
Work on B9 yielded a Kd [8] of 130 nM, a koff [8] of 0.143 s⁻¹ and a kon [8] of 1.09e+06 M⁻¹ s⁻¹.

B10: TB640_005 Fab-SASA wild type (Fab, V domains shown)
VH: EVQLVESGGDLVKPGGSLRLSCVASGFTFRDYAMTWVRQAPGKGLQWVSLISGSGGKTYYADAVKGRFTISRDNAKNTLYLQMNSLRAEDTAVYYCAVDRLTKTIRPQYYGLWVWGQGTLVTVSS
VL: DIVMTQTPLSLSVSPGETASISCRSSQSLLYSIGYNYLDWYLQKPGQSPQGLIYLGSKRASGVPDRFSGSGSGTDFTLRISRVEANDTGVYYCMQGLQSPLTFGQGTKLEIKR
notes: secreted from E. coli, tested in conditioned medium; also called WT; not shown: SASA tag then His-tag
With B10 the Kd [9] was 13 nM and 13.3 nM and 13.2 nM, the “Ratio WT-kd/clone-kd” value [9] was 1 and the koff [9] was 0.000952 s⁻¹ and 0.000953 s⁻¹. The kon [9] was 73100 M⁻¹ s⁻¹ and 71700 M⁻¹ s⁻¹ and 72400 M⁻¹ s⁻¹, the Kd [10] was 6.07 nM and the koff [10] was 0.00116 s⁻¹. The kon [10] was 191000 M⁻¹ s⁻¹.

B11: TB640_057 (antibody, V domains shown)
VH: EVQLVESGGDLVKPGGSLRLSCVASGFTFRDYAMTWVRQAPGKGLQWVSTITGSGGNTYYADAVKGRFTISRDNAKNTLYLQMNSLRAEDTAVYYCAKDRLSITIRPRYYGLDVWGQGTLVTVSS
VL: DIVMTQTPLSLSVSPGETASISCRASQSLLYSIGYNYLDWYLQKPGQSPQGLIYLGSKRASGVPDRFSGSGSGTDFTLRISRVEANDTGVYYCMQAIQAPYTFGQGTKLEIKR
notes: caninized IgG
B11 gave a Kd [7] of 5.54 nM, a koff [7] of 0.00107 s⁻¹ and a kon [7] of 194000 M⁻¹ s⁻¹.

B12: TB640_109 (antibody, V domains shown)
VH: EVQLVESGGDLVKPGGSLRLSCVASGFTFRDYAMTWVRQAPGKGLQWVSTISGSGGKTYYADAVKGRFTISRDNAKNTLYLQMNSLRAEDTAVYYCAVDRLTKTIRPQYYGLSVWGQGTLVTVSS
VL: DIVMTQTPLSLSVSPGETASISCRASQSLLYSIGYNYLDWYLQKPGQSPQGLIYLGSKRASGVPDRFSGSGSGTDFTLRISRVEANDTGVYYCMQALRDPYTFGQGTKLEIKR
notes: caninized IgG
B12 showed a Kd [7] of 6.06 nM, a koff [7] of 0.00136 s⁻¹ and a kon [7] of 225000 M⁻¹ s⁻¹.
